Experimental data taken from IntAct's records for PubMed 18854156.

B1: Sporulation initiation inhibitor protein Soj (Bacillus subtilis), P37522 (parent)
chain: MGKIIAITNQKGGVGKTTTSVNLGACLAYIGKRVLLVDIDPQGNATSGLGIEKADVEQCVYDILVDDADVIDIIKATTVENLDVIPATIQLAGAEIELVPTISREVRLKRALEAVKQNYDYIIIDCPPSLGLLTINALTASDSVVIPVQCEYYALEGLSQLLNTVRLVQKHLNTDLMIEGVLLTMLDARTNLGIQVIEEVKKYFRDKVYKTVIPRNVRLSEAPSHGKPIILYDPRSRGAEVYLDLAKEVAANG

Variants of: B1
Conditions: with dnaa_bacsu dnaA

| effect of a mutation on the interaction | Variant |
| --- | --- |
| increasing interaction | K16A |
| increasing interaction | G12V |

Variants of: B1
Conditions: with dnaa_bacsu dnaA
Remark: another data set of the same source

| effect of a mutation on the interaction | Variant |
| --- | --- |
| decreasing interaction | D40A |
